Measured values: patent US20130330324A1 (Novartis, published 2013)

Assays:
[1] = biological target: T1, Human HER3, endogenous, on human cancer cell lines (human, UniProt P21860 20-1342); experiment: cell-based or functional assay
[2] = biological target: T1, Human HER3, endogenous, on human cancer …; experiment: cell-based or functional assay; remark: listed apart in the source
[3] = biological target: T1, Human HER3, endogenous, on human cancer …; experiment: cell-based or functional assay; remark: listed apart in the source
[4] = biological target: T1, Human HER3, endogenous, on human cancer …; experiment: FACS titration on SK-Br-3 cells
[5] = biological target: T2, Hu HER3 (CD33-[Human HER3, residues 20-640]-TAG) (human, UniProt P21860 20-640); experiment: solution equilibrium titration (SET), IgG
T2 construct: N-terminal CD33 leader is a secretion signal and is left out; also called hu HER3-Tag; HER3-Tag; not shown: C-terminal TAG (e.g. FLAG TAG)

[6] = biological target: T3, Cyno HER3 (CD33-[Cyno HER3, residues 20-643]-TAG) (cynomolgus, UniProt G7PIG5 20-643); experiment: solution equilibrium titration (SET), IgG
T3 construct: range 20-643; CD33 leader left out as signal; also called cy HER3-Tag; not shown: C-terminal TAG (e.g. FLAG TAG)

[7] = biological target: T4, Mu HER3 (CD33-[Murine HER3, residues 20-643]-TAG) (mouse, UniProt Q61526 20-643); experiment: solution equilibrium titration (SET), IgG
T4 construct: range 20-643; CD33 leader left out as signal; also called mu HER3-Tag; not shown: C-terminal TAG (e.g. FLAG TAG)

[8] = biological target: T5, Rat HER3 (CD33-[Rat HER3, residues 20-643]-TAG) (rat, UniProt Q62799 20-643); experiment: solution equilibrium titration (SET), IgG
T5 construct: range 20-643; CD33 leader left out as signal; also called ra HER3-Tag; not shown: C-terminal TAG (e.g. FLAG TAG)

MCF7 pHER3 % inhibition [1] | MCF7 pHER3 IC50 [1] | SK-Br-3 pHER3 % inhibition [1] | SK-Br-3 pHER3 IC50 [1] | BT-474 pAkt (S473) % inhibition [2] | BT-474 proliferation % inhibition at 10 µg/ml IgG [3] | Kd [5] | Kd [6] | Kd [7] | Kd [8] | other results | Binder
89% | 181 pM | 59% | 56 pM | 57% | 39.8% | 0.009 nM | 0.004 nM | 0.002 nM | 0.011 nM | SK-Br-3 pAkt (S473) % inhibition [2]: 92%; SK-Br-3 pAkt (S473) IC50 [2]: 55 pM; MCF7 (neuregulin stimulated) proliferation % inhibition at 10 µg/ml IgG [3]: 82%; SK-Br-3 proliferation % inhibition at 10 µg/ml IgG [3]: 39%; EC50 [4]: 0.63 nM | MOR09823 (antibody, human IgG1, kappa, V domains shown, tested as IgG) VH: QVQLVESGGGLVQPGGSLRLSCAASGFTFSSYAMSWVRQAPGKGLEWVSVTGAVGRTYYPDSVKGRFTISRDNSKNTLYLQMNSLRAEDTAVYYCARWGDEGFDIWGQGTLVTVSS VL: DIQMTQSPSSLSASVGDRVTITCRASQGISNWLAWYQQKPGKAPKLLIYGASSLQSGVPSRFSGSGSGTDFTLTISSLQPEDFAVYYCQQYSSFPTTFGQGTKVEIKR
80% | 399 pM | 66% | 169 pM | 69% | 37.2% | 0.025 nM | 0.056 nM | 0.024 nM | 0.096 nM | MCF7 pAkt (S473) IC50 [2]: 294 pM; SK-Br-3 pAkt (S473) % inhibition [2]: 91%; SK-Br-3 pAkt (S473) IC50 [2]: 156 pM; MCF7 (neuregulin stimulated) proliferation % inhibition at 10 µg/ml IgG [3]: 63%; SK-Br-3 proliferation % inhibition at 10 µg/ml IgG [3]: 41%; EC50 [4]: 0.839 nM | MOR09825 (antibody, human IgG1, kappa, V domains shown, tested as IgG) VH: QVQLVESGGGLVQPGGSLRLSCAASGFTFSSYAMSWVRQAPGKGLEWVSAINSQGKSTYYADSVKGRFTISRDNSKNTLYLQMNSLRAEDTAVYYCARWGDEGFDIWGQGTLVTVSS VL: DIQMTQSPSSLSASVGDRVTITCRASQGISNWLAWYQQKPGKAPKLLIYGASSLQSGVPSRFSGSGSGTDFTLTISSLQPEDFAVYYCQQYSSFPTTFGQGTKVEIKR
– | – | – | – | – | – | 0.022 nM | – | – | – | – | MOR10703 A50V_N52G (antibody, human IgG1, kappa, V domains shown, Variant of MOR10703; IgG1/kappa) VH: EVQLLESGGGLVQPGGSLRLSCAASGFTFSSYAMSWVRQAPGKGLEWVSVIGSQGKSTYYADSVKGRFTISRDNSKNTLYLQMNSLRAEDTAVYYCARWGDEGFDIWGQGTLVTVSS VL: DIQMTQSPSSLSASVGDRVTITCRASQGISNWLAWYQQKPGKAPKLLIYGASSLQSGVPSRFSGSGSGTDFTLTISSLQPEDFATYYCQQYSSFPTTFGQGTKVEIKR
– | – | – | – | 55% | 43.8% | 0.003 nM | 0.003 nM | 0.005 nM | 0.006 nM | – | MOR10702 (antibody, human IgG1, kappa, V domains shown, tested as IgG) VH: EVQLLESGGGLVQPGGSLRLSCAASGFTFSSYAMSWVRQAPGKGLEWVSVISAWGHVKYYADSVKGRFTISRDNSKNTLYLQMNSLRAEDTAVYYCARWGDEGFDIWGQGTLVTVSS VL: DIQMTQSPSSLSASVGDRVTITCRASQGISNWLAWYQQKPGKAPKLLIYGASSLQSGVPSRFSGSGSGTDFTLTISSLQPEDFATYYCQQYSSFPTTFGQGTKVEIKR
– | – | – | – | – | – | 0.06 nM | – | – | – | – | MOR10703 N52G (antibody, human IgG1, kappa, V domains shown, Variant of MOR10703; IgG1/kappa) VH: EVQLLESGGGLVQPGGSLRLSCAASGFTFSSYAMSWVRQAPGKGLEWVSAIGSQGKSTYYADSVKGRFTISRDNSKNTLYLQMNSLRAEDTAVYYCARWGDEGFDIWGQGTLVTVSS VL: DIQMTQSPSSLSASVGDRVTITCRASQGISNWLAWYQQKPGKAPKLLIYGASSLQSGVPSRFSGSGSGTDFTLTISSLQPEDFATYYCQQYSSFPTTFGQGTKVEIKR
– | – | 74% | 370 pM | 59% | 43.6% | 0.004 nM | 0.004 nM | 0.006 nM | 0.01 nM | – | MOR10701 (antibody, human IgG1, kappa, V domains shown, tested as IgG) VH: EVQLLESGGGLVQPGGSLRLSCAASGFTFSSYAMSWVRQAPGKGLEWVSVTGAVGRSTYYPDSVKGRFTISRDNSKNTLYLQMNSLRAEDTAVYYCARWGDEGFDIWGQGTLVTVSS VL: DIQMTQSPSSLSASVGDRVTITCRASQGISNWLAWYQQKPGKAPKLLIYGASSLQSGVPSRFSGSGSGTDFTLTISSLQPEDFATYYCQQYSSFPTTFGQGTKVEIKR
– | – | – | – | – | – | 0.011 nM | – | – | – | – | MOR10701 R55K (antibody, human IgG1, kappa, V domains shown, Variant of MOR10701; IgG1/kappa) VH: EVQLLESGGGLVQPGGSLRLSCAASGFTFSSYAMSWVRQAPGKGLEWVSVTGAVGKSTYYPDSVKGRFTISRDNSKNTLYLQMNSLRAEDTAVYYCARWGDEGFDIWGQGTLVTVSS VL: DIQMTQSPSSLSASVGDRVTITCRASQGISNWLAWYQQKPGKAPKLLIYGASSLQSGVPSRFSGSGSGTDFTLTISSLQPEDFATYYCQQYSSFPTTFGQGTKVEIKR
69% | 3070 pM | 67% | 1930 pM | – | – | 0.35 nM | 0.2 nM | 0.12 nM | – | SK-Br-3 pAkt (S473) % inhibition [2]: 85%; SK-Br-3 pAkt (S473) IC50 [2]: 814 pM; MCF7 (neuregulin stimulated) proliferation % inhibition at 10 µg/ml IgG [3]: 20%; SK-Br-3 proliferation % inhibition at 10 µg/ml IgG [3]: 35% | MOR09974 (antibody, human IgG1, kappa, V domains shown, tested as IgG) VH: QVQLVESGGGLVQPGGSLRLSCAASGFTFSSYAMSWVRQAPGKGLEWVSVINPSGNFTNYADSVKGRFTISRDNSKNTLYLQMNSLRAEDTAVYYCARWGDEGFDIWGQGTLVTVSS VL: DIQMTQSPSSLSASVGDRVTITCRASQGISNWLAWYQQKPGKAPKLLIYGASSLQSGVPSRFSGSGSGTDFTLTISSLQPEDFAVYYCQQYSSFPTTFGQGTKVEIKR
– | – | – | – | – | – | 0.016 nM | – | – | – | – | MOR10703 A50V_N52S (antibody, human IgG1, kappa, V domains shown, Variant of MOR10703; IgG1/kappa) VH: EVQLLESGGGLVQPGGSLRLSCAASGFTFSSYAMSWVRQAPGKGLEWVSVISSQGKSTYYADSVKGRFTISRDNSKNTLYLQMNSLRAEDTAVYYCARWGDEGFDIWGQGTLVTVSS VL: DIQMTQSPSSLSASVGDRVTITCRASQGISNWLAWYQQKPGKAPKLLIYGASSLQSGVPSRFSGSGSGTDFTLTISSLQPEDFATYYCQQYSSFPTTFGQGTKVEIKR
84% | 126 pM | 75% | 192 pM | – | – | 0.037 nM | – | – | – | – | MOR12610 (antibody, human IgG1, kappa, V domains shown, tested as IgG) VH: QVQLVESGGGLVQPGGSLRLSCAASGFTFSSYAMSWVRQAPGKGLEWVSGTGPYGGTYYPDSVKGRFTISRDNSKNTLYLQMNSLRAEDTAVYYCARWGDEGFDIWGQGTLVTVSS VL: DIQMTQSPSSLSASVGDRVTITCRASQGISNWLAWYQQKPGKAPKLLIYGASSLQSGVPSRFSGSGSGTDFTLTISSLQPEDFAVYYCQQYSSFPTTFGQGTKVEIKR
– | – | – | – | – | – | 0.057 nM | – | – | – | – | MOR10703 N52S (antibody, human IgG1, kappa, V domains shown, Variant of MOR10703; IgG1/kappa) VH: EVQLLESGGGLVQPGGSLRLSCAASGFTFSSYAMSWVRQAPGKGLEWVSAISSQGKSTYYADSVKGRFTISRDNSKNTLYLQMNSLRAEDTAVYYCARWGDEGFDIWGQGTLVTVSS VL: DIQMTQSPSSLSASVGDRVTITCRASQGISNWLAWYQQKPGKAPKLLIYGASSLQSGVPSRFSGSGSGTDFTLTISSLQPEDFATYYCQQYSSFPTTFGQGTKVEIKR
86% | 5 pM | 71% | 241 pM | – | – | 0.01 nM | – | – | – | – | MOR12609 (antibody, human IgG1, kappa, V domains shown, tested as IgG) VH: QVQLVESGGGLVQPGGSLRLSCAASGFTFSSYAMSWVRQAPGKGLEWVSVINGLGYTTFYADSVKGRFTISRDNSKNTLYLQMNSLRAEDTAVYYCARWGDEGFDIWGQGTLVTVSS VL: DIQMTQSPSSLSASVGDRVTITCRASQGISNWLAWYQQKPGKAPKLLIYGASSLQSGVPSRFSGSGSGTDFTLTISSLQPEDFAVYYCQQYSSFPTTFGQGTKVEIKR
– | – | – | – | – | – | 0.018 nM | – | – | – | – | MOR10701 R55G (antibody, human IgG1, kappa, V domains shown, Variant of MOR10701; IgG1/kappa) VH: EVQLLESGGGLVQPGGSLRLSCAASGFTFSSYAMSWVRQAPGKGLEWVSVTGAVGGSTYYPDSVKGRFTISRDNSKNTLYLQMNSLRAEDTAVYYCARWGDEGFDIWGQGTLVTVSS VL: DIQMTQSPSSLSASVGDRVTITCRASQGISNWLAWYQQKPGKAPKLLIYGASSLQSGVPSRFSGSGSGTDFTLTISSLQPEDFATYYCQQYSSFPTTFGQGTKVEIKR
